Results taken from US20190330338A1 (UNIVERSITY OF UTAH RESEARCH FOUNDATION, published 2019).
Like-named read-outs stand apart in the source and are kept apart here.

T1: recombinant CD229 (human, UniProt Q9HBG7 48-454)
T1 chain: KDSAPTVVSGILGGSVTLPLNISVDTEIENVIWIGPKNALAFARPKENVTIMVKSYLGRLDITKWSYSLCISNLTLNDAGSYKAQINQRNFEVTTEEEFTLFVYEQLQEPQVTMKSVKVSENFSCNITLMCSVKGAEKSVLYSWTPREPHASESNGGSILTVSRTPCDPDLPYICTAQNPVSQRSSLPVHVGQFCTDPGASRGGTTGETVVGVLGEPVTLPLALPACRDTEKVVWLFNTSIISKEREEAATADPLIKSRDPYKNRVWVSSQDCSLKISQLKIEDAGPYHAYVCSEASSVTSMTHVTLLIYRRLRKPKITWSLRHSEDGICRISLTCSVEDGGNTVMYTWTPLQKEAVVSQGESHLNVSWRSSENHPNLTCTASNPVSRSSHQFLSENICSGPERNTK

T2: recombinant CD229 (human, UniProt Q9HBG7 48-454, limits assumed)
T2 construct: Labeled with allophycocyanin in the CAR flow cytometry assay; also called APC-labeled recombinant CD229; immobilized recombinant CD229
T2 sequence (looked up): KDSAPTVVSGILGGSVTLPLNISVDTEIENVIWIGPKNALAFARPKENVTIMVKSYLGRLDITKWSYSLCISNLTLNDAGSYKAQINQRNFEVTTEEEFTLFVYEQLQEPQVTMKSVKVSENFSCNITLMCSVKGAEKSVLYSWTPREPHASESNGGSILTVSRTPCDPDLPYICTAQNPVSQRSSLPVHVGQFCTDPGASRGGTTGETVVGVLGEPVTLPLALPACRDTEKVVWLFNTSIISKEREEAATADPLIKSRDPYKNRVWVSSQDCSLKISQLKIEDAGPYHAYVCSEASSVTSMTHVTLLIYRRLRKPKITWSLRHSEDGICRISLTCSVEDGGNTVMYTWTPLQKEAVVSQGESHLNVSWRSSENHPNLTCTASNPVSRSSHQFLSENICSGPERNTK


Legend:
[1] = target: T1, recombinant CD229; test: SPR
[2] = target: T1, recombinant CD229; test: SPR
[3] = target: T2, recombinant CD229; test: competition SPR on immobilized CD229
Text: FIGS. 5A, 5B, 5C, 5D, and 5E show the binding, cross-reactivity, and selectivity of anti CD229 CAR T cells. (A) Cross-reactivity screening of 2 anti-CD229 antibody clones expressed as scFv-Fc constructs in mammalian cells by TRF assay using recombinant SLAM family members. […] (B) Cytotoxic activity of primary human T cells expressing CAR constructs based on two antibodies or GFP alone against CD229 positive myeloma cell line U266 and healthy autologous T cells as determined by flow cytometry. Anti-CD229 CARs specifically kill myeloma cells but not healthy T cells co-expressing CD229. […] (E) Competition SPR using immobilized CD229 and sequential injections of the primary antibodies followed by individual injection of antibodies to determine their ability to compete for the epitope recognized by the primary antibody. 1D5 and 2D3 occupy the same epitope space while 2A2 binds to a distinct epitope. Due to the lack of self-competition, 2A2 most likely binds to an epitope occurring twice in recombinant CD229, a tandem Ig domain-containing protein.

[4] = target: T2, recombinant CD229; test: flow cytometry of 293T cells expressing the CAR, stained with APC-labeled recombinant CD229
Procedure: In the final CAR construct, the scFv can be joined directly to a 45 amino acid hinge domain, which can alter binding properties of the antibodies. […] 20 of the 23 unique scFv binders still recognized CD229 with the new C-terminal fusion partner. All 23 unique binders were cloned into the CAR vector (FIG. 7D). The second-generation CAR construct uses a CD8α hinge and transmembrane domain with a CD3ζ signaling and a 4-1BB costimulatory domain. In addition, a hemagglutinin (HA) tag was added between the scFv and hinge domains to allow the simultaneous assessment of antigen binding and surface expression (FIG. 7D).

| Kd [1] | Kd [2] | binding result [3] | binding result [4] | Binder |
| --- | --- | --- | --- | --- |
| 0.0184 µM | 0.0184 µM | binds |  | anti-CD229 antibody clone 2A2 expressed as scFv-Fc (Fc fusion, scFv fused C-terminally to an immunoglobulin Fc domain, expressed in mammalian cells; not shown: immunoglobulin Fc domain) QMQLVQSGAEVKKPGSSVKVSCKASGGTFSSYAISWVRQAPGQGLEWMGGIIPIFGTANYAQKFQGRVTITADKSTSTAYMELSSLRSDDTAVYYCARDELWATNYYYMDVWGKGTLVTVSSLEGGGGSGGGGSGGGASQSALTQPRSVSGSPGQSVTISCTGTSSDVGSYNYVSWYQQSPGKAPKLMIYDVSNRPSGVSNRFSGSKSGNTASLTISGLQSEDEADYYCTSYGSYDIPVIFGGGTKLTVLG |
|  |  |  | binds | anti-CD229 CAR construct, Clone 2A2 (other, CAR expressed on cells; also called anti-CD229 CAR clone 2A2; not shown: HA tag, CD8alpha hinge and transmembrane domain, 4-1BB co-stimulatory and CD3zeta signaling domains) QMQLVQSGAEVKKPGSSVKVSCKASGGTFSSYAISWVRQAPGQGLEWMGGIIPIFGTANYAQKFQGRVTITADKSTSTAYMELSSLRSDDTAVYYCARDELWATNYYYMDVWGKGTLVTVSSLEGGGGSGGGGSGGGASQSALTQPRSVSGSPGQSVTISCTGTSSDVGSYNYVSWYQQSPGKAPKLMIYDVSNRPSGVSNRFSGSKSGNTASLTISGLQSEDEADYYCTSYGSYDIPVIFGGGTKLTVLG |
|  |  |  | binds | anti-CD229 CAR construct, Clone 1A9 (other, CAR expressed on cells; not shown: HA tag, CD8alpha hinge and transmembrane domain, 4-1BB co-stimulatory and CD3zeta signaling domains) QITLKESGPTLVKPTQTLTLTCTFSGFSLSTSGVGVGWIRQPPGKALEWLALIYWNDDKRYSPSLKSRLTIAKDTSKNQVVLTMTNMDPVDTATYYCARMGWNDPHMVDYWGQGTLVTVSSLEGGGGSGGGGSGGGASDIQMTQSPSSLSASVGDRVTITCRASQSIGSSLHWYQQKPGKAPKFLIYDASSLESGVPSRFSGSGSGTEFTLTISSLQPDDFATYYCQQYNSYPLTFGGGTKLEIKR |
